Tests used:
CXCR4 (human) = CXCR4 (human) (UniProt P61073); test: cell-based or functional assay
[1] = biological target: chemokine receptors on THP-1 cells; test: biotinylated peptide on THP-1 cells, streptavidin-peroxidase, Scatchard; with and without 100 µM unlabeled peptide 3 (printed as affinity constant)
[2] = biological target: chemokine receptors on THP-1 cells; test: biotinylated peptide at 100 µM on 4×10^5 THP-1 cells, streptavidin-peroxidase, TMB
[3] = biological target: chemokine receptors on the surface of Jurkat cells; test: biotinylated peptide at 100 µM on 10^6 Jurkat cells, streptavidin-peroxidase, TMB
[4] = biological target: chemokine receptors on the surface of Jurkat cells; test: biotinylated peptide on cells, streptavidin-peroxidase

CXCR4 (human), sequence (P61073 whole entry): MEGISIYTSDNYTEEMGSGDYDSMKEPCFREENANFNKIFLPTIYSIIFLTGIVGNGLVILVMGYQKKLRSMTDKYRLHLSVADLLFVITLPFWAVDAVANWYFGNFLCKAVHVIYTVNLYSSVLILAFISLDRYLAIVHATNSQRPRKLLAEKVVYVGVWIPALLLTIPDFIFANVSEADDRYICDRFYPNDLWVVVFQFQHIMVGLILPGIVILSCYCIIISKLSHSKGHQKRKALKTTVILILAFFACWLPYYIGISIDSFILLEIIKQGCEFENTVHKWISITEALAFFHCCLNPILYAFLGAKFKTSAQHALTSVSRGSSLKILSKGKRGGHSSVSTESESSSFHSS

Q: Which percentage inhibition of SDF1α induced THP-1 migration at 100 µM (CXCR4 (human)) does the source give for KLK (peptide) here?
A: 87%

Q: With “N-terminal biotin-labeled peptide 2(1-15)[MCP-1]” as the substance, how does the Kd [1] read?
A: 250 nM

Q: With gp120:V3(BaL) (peptide) as the substance, how does the ΔA450 nm, alone [2] read?
A: 0.642 ΔA450 nm

Q: And the ΔA450 nm, specific binding [2]?
A: 0.535 ΔA450 nm

Q: And the ΔA450 nm, alone [3]?
A: 0.167 ΔA450 nm

Q: What about the ΔA450 nm, specific binding [3] of the same substance?
A: < 0 ΔA450 nm

Q: gp120:V3(IIIb) (peptide) was tested. Which ΔA450 nm, alone [2] did it give?
A: 0.268 ΔA450 nm

Q: What about the ΔA450 nm, specific binding [2] of the same substance?
A: 0.137 ΔA450 nm

Q: And the fold specific binding against THP-1 cells [4]?
A: 5 fold

Q: And the ΔA450 nm, alone [3]?
A: 0.878 ΔA450 nm

Q: And the ΔA450 nm, specific binding [3]?
A: 0.689 ΔA450 nm

Source: US7238711
